The values below come from US20100215575A1, “Systemic Administration of Chlorotoxin Agents for the Diagnosis and Treatment of Tumors” (TRANSMOLECULAR, INC., priority 2007, published 2010).

The data set concerns D54-MG xenografted human glioma tumors. The data set can be described thus: Brain tumor targeting after intravenous injection (D54-MG/SCID mouse model). The format is in vivo. The following applies: tail vein injection, measured after 24 hours. The text has this: These experiments consisted of five research studies utilizing the […] mouse model.

Take “125I-EGF: 125I-labeled EGF used as a control; EGF receptor is up-regulated in these tumors”: the “Targeting of brain tumor” value is “did not localize to the brain tumors to any appreciable extent”.
